The values below come from patent US20170334962A1 (TEXAS A AND M UNIVERSITY SYSTEM, published 2017).

Substitutions are numbered along the chain they refer to. Numbers in names are those of the source.

In assay [1] the target is T1, recombinant soluble mouse FcRn (mouse, UniProt Q61559 22-290; P01887 21-119, limits assumed).
T1 construct: also called mFcRn
T1 sequence (looked up) 1: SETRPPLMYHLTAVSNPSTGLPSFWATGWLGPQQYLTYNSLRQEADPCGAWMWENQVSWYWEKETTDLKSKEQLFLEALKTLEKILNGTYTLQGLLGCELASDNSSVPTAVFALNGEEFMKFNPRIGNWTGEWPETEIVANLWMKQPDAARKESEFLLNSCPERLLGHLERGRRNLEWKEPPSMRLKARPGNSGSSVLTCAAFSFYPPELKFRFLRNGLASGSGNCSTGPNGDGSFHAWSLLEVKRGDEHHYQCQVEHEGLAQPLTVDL
T1 sequence (looked up) 2: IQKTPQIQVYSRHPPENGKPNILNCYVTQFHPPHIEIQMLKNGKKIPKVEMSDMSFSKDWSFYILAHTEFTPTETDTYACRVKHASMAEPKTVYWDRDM
The assay is described as follows: SPR (BIAcore 2000), Fc-hinge immobilized by amine coupling, soluble mouse FcRn as analyte, pH 6.0; value for the higher affinity site; pH 6.0. The procedure: (§1) Equilibrium dissociation constants of WT and mutated mouse Fc-hinge fragments (IgG1-derived) for binding to recombinant mouse FcRn were determined using surface plasmon resonance and a BlAcore 2000. Mouse Fc-hinge fragments were immobilized by amine coupling chemistry (to a density of ˜250-850 RU) and BlAcore experiments carried out as described previously, using soluble mouse FcRn in Dulbecco's phosphate-buffered saline (DPBS) plus 0.01% Tween pH 6.0 or 7.4 as analyte. FcRn binds to two sites on IgG that are not equivalent. […] The data were processed as described previously.
(In general: Surface plasmon resonance follows binding to a sensor surface in real time, without labels.)

For assay [2], the target named is T1, recombinant soluble mouse FcRn. The assay is described as follows: SPR (BIAcore 2000), Fc-hinge immobilized by amine coupling, soluble mouse FcRn as analyte, pH 7.4; value for the higher affinity site. As to the method:
as §1

Assay [3] has the same target. The assay is described as follows: SPR (BIAcore 2000), Fc-hinge immobilized by amine coupling, soluble mouse FcRn as analyte, pH 6.0; value for the higher affinity site. The procedure:
as §1

Assay [4] has the same target. The assay is described as follows: SPR (BIAcore T200), fusion immobilized on a CM5 chip, mFcRn as analyte, pH 6.0; value for the higher affinity site; pH 6.0. As to the method:
(§2) Equilibrium dissociation constants (KDs) for the binding of Fc-OVA(323-339) (WT, TT-HN and H435A) to recombinant mouse FcRn were determined using surface plasmon resonance (BlAcore T200; GE Healthcare) and previously described methods. CM5 chips were coupled with recombinant Fc(WT)-OVA(323-339), Fc(TT-HN)-OVA(323-339), and Fc(H435A)-OVA(323-339) to densities of ˜500-900 RU followed by injection of mFcRn at various concentrations (1-2000 nM) at a flow rate of 10 μl/min using PBS (pH 6.0 or 7.4; Lonza), 0.01% (v/v) Tween-20 as running buffer. Flow cells were regenerated at the end of each cycle using 0.15 M NaCl, 0.1 M sodium bicarbonate (pH 8.5) buffer. FcRn binds to two sites on IgG-Fc that are not equivalent. […] The data were processed as described previously.

The target is the same in assay [5]. The assay is described as follows: SPR (BIAcore T200), fusion immobilized on a CM5 chip, mFcRn as analyte, pH 6.0; value for the higher affinity site. As to the method: as §2
Assay [6] has the same target. The assay is described as follows: SPR (BIAcore T200), fusion immobilized on a CM5 chip, mFcRn as analyte, pH 7.4; value for the higher affinity site. As to the method: as §2
For assay [7] the target is unchanged. Briefly: SPR (BIAcore T200), fusion immobilized on a CM5 chip, mFcRn as analyte, pH 6.0. The procedure: as §2

B1: WT mouse Fc-hinge fragment (IgG1-derived) (other, UniProt P01868 98-324, looked up)
chain: VPRDCGCKPCICTVPEVSSVFIFPPKPKDVLTITLTPKVTCVVVDISKDDPEVQFSWFVDDVEVHTAQTQPREEQFNSTFRSVSELPIMHQDWLNGKEFKCRVNSAAFPAPIEKTISKTKGRPKAPQVYTIPPPKEQMAKDKVSLTCMITDFFPEDITVEWQWNGQPAENYKNTQPIMNTNGSYFVYSKLNVQKSNWEAGNTFTCSVLHEGLHNHHTEKSLSHSPGK
notes: domain: Fc-hinge; Recombinant Fc-hinge made in CHO-S cells by methods analogous to those for the Fc-MBP fusions; also called WT Fc-hinge
As usually defined, the Kd is the equilibrium constant for the complex coming apart. As to B1, in assay [1], the Kd was 218 nM.

B2: m-set-1 mouse Fc-hinge fragment (IgG1-derived; T252L/T254S/T256F/E380A/H433K/N434F) (other, UniProt P01868 98-324, looked up)
chain: B1 chain with T32L, T34S, T36F, E160A, H213K, N214F
notes: domain: Fc-hinge; also called mutation-set-1
Turning to B2, the Kd in assay [2] came to 115 nM; in assay [3] it was 2.6 nM.

B3: m-set-2 mouse Fc-hinge fragment (IgG1-derived; T252Y/T256E/H433K/N434F) (other, UniProt P01868 98-324, looked up)
chain: B1 chain with T32Y, T36E, H213K, N214F
notes: domain: Fc-hinge; also called mutation-set-2; TT-HN
With B3, the Kd in assay [2] was 20.4 nM; in assay [3], 1.1 nM.

B4: mIgG1-Fc(WT)-OVA(323-339) (Fc fusion)
chain: VPRDCGCKPCICTVPEVSSVFIFPPKPKDVLTITLTPKVTCVVVDISKDDPEVQFSWFVDDVEVHTAQTQPREEQFNSTFRSVSELPIMHQDWLNGKEFKCRVNSAAFPAPIEKTISKTKGRPKAPQVYTIPPPKEQMAKDKVSLTCMITDFFPEDITVEWQWNGQPAENYKNTQPIMDTDGSYFVYSKLNVQKSNWEAGNTFTCSVLHEGLHNHHTEKSLSHSPGKGSGGISQAVHAAHAEINEAGRGSGHHHHHH
Regarding B4, in assay [4], the Kd was 300 nM.

B5: mIgG1-Fc(TT-HN)-OVA(323-339) (Fc fusion)
chain: B4 chain with T32Y, T36E, H213K, N214F
notes: The limits of the leader are inferred as for m4; also called Fc(T252Y/T256E/H433K/N434F)-antigen
As for B5, the Kd in assay [5] came to 3 nM; in assay [6], 14.9 nM.

B6: mIgG1-Fc(H435A)-OVA(323-339) (Fc fusion)
chain: B4 chain with H215A
notes: The limits of the leader are inferred as for m4
For B6, the binding result in assay [7] is “no binding (tested: mFcRn injected at 1-2000 nM)”.
